Assay results taken from patent US7271245B2, “Methods and compositions for inhibition of metastasis” (The Scripps Research Institute, priority 2004, dated 2007).

Tests used:
α5β1 = molecular target: T1, α5β1 (Homo sapiens, UniProt P05556+P08648); experiment: Flow cytometry, binding to other RGD-recognizing integrins
T1 construct: endogenous in cells
Experimental: Flow cytometry. scFv binding to human tumor cells was analyzed by flow cytometry, initially with cloned scFv phage and then with purified scFv protein. Per sample, 2×10^5 tumor cells were blocked with goat serum and incubated either with scFv phage (2-5×10^10) (1 h at RT) followed by mouse anti-M13 mAb (Serotec) (30 min on ice) and goat FITC-anti mouse (Pierce) (30 min on ice), or with purified scFv (1.25 to 40 μg/ml, routinely 10 to 15 μg/ml) (45 min on ice), followed by mouse anti-FLAG mAb M2 (Sigma) (30 min on ice) and goat FITC-anti mouse. Binding/washing buffer was TBS with or without divalent cations (1 mM Ca^2+, 1 mM Mg^2+, 0.2 mM Mn^2+). Alternatively, tumor cells were washed in 10 ml of plasma (prepared freshly from human blood anticoagulated with 50 nM D-Phe-D-Pro-D-arginyl chloromethyl ketone, PPACK, Felding-Habermann et al., J. Biol. Chem. 271: 5892-5900, 1996), resuspended in plasma and then incubated sequentially, without washing, with purified scFv (45 min on ice), followed by anti-FLAG M2 (30 min on ice) and FITC-anti mouse (30 min on ice). All samples were counter stained with propidium iodide (PI) and analyzed on a Becton-Dickinson FACScan, with live gate set to exclude PI positive cells.
To generate therapeutic reagents that specifically react with activated αvβ3, a phage display library of single chain antibody fragments (scFv) was exploited. This library was derived from cancer patient blood lymphocyte cDNA libraries and allowed us to test the hypothesis that the expressed immune repertoire contains antibodies that recognize integrin αvβ3, and distinguish between its activated and non-activated forms. Mao et al., Proc. Natl. Acad. Sci. U.S.A 96: 6953-6958, 1999. A subtractive panning approach was designed based on variants of MDA-MB 435 human breast cancer cells. […] Apparently, these cells are selected during metastasis, as variant cells isolated from lung and bone metastases in immune deficient mice express constitutively activated αvβ3. To establish a cell population that uniformly expresses non-activated αvβ3, MDA-MB 435 parental cells were cloned by limiting dilution, and clones tested for αvβ3 functionality. […] A cell line, MDA-MB 435 Lung-Lung, was established which expressed αvβ3 in a constitutively activated form. This variant stems from a lung metastase of an immune deficient mouse whose mammary fat pad had been injected with parental MDA-MB 435 cells. […] After 5 rounds of subtracting the phage library on Parent Combo cells and panning on Lung-Lung cells, scFv clones were analyzed by flow cytometry for their ability to bind integrin αvβ3 on human tumor cells, and to distinguish between the activated and non-activated forms of the receptor (FIG. 1). […]

[1] = system: matrix deprived BMS breast cancer cells; experiment: Apoptosis of matrix deprived breast cancer cells; format: cell-based, human; conditions: 3.7 μM scFv, ultra-low-adhesion plates, 20 hrs
Experimental: FIGS. 3A, 3B, 3C, 3D, 3E. scFv Bc-12 and Bc-15 inhibit αvβ3 mediated adhesive breast cancer cell functions. (A) Adhesion of BMS human breast cancer cells to fibrinogen (Fg), vitronectin (VN) or type I collagen (Col I) in the absence or presence of 3 μM Bc-12, Bc-15 or their RGE mutants Mut-12, Mut-15, compared to 200 μM GRGDSPK peptide (SEQ ID NO: 11). Protein coating concentrations: 10 μg/ml (VN, Col I) or 20 μg/ml (Fg). Adhesion time: 30 min at 37° C. (B) Effect of scFvs on haptotactic BMS cell migration toward a fibrinogen substrate (16 hrs at 37° C. in transwell chambers with or without 2 μM Bc-12, Bc-15 or their RGE mutants Mut-12 or Mut-15, compared to 200 μM GRGDSPK peptide) (SEQ ID NO: 11). (C) Effect of scFvs on breast cancer cell arrest during blood flow. Metastatic BMS cells, labeled with hydroethidine, were suspended in human blood (anticoagulated with 50 nM PPACK) and perfused over a collagen I matrix at a venous wall shear rate of 50 s^−1. Under these conditions, breast cancer cells arrest by αvβ3 mediated binding to adherent, thrombus forming platelets. Tumor cell adhesion was quantified by image acquisition at 30 predefined positions during blood flow. Left: representative images of platelet signal (thrombi, green fluorescence) and tumor cell signal (red fluorescence) at identical x,y positions. […]

T1 sequence (P08648 42-894 limits assumed): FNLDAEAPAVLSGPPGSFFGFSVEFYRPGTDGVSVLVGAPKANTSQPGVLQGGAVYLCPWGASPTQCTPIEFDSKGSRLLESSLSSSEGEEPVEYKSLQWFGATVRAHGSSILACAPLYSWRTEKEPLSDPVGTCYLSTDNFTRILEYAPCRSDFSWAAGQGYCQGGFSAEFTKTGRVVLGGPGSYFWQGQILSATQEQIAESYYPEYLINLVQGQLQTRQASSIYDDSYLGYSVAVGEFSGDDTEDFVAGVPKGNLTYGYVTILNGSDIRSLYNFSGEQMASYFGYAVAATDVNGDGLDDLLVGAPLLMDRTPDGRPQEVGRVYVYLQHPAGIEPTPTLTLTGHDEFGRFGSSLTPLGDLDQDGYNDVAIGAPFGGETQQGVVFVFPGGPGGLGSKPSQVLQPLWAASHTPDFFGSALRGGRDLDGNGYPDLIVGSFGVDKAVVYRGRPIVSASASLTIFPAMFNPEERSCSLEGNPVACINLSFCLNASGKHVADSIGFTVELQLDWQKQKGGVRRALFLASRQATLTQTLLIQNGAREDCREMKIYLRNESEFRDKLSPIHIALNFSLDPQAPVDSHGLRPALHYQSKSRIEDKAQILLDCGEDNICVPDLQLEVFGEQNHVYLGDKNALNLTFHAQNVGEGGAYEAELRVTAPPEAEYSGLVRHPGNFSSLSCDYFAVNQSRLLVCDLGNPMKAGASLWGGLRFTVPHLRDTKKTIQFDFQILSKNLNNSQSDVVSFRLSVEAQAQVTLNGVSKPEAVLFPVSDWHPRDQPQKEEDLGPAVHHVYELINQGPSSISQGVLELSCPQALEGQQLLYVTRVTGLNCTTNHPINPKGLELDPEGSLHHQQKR
T1 sequence (P08648 895-1049 partner limits assumed): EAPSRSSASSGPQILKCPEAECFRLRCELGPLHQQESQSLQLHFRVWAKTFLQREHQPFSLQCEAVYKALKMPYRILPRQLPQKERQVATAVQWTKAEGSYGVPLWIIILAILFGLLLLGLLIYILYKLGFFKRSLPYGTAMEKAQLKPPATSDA
T1 sequence (P05556 21-798): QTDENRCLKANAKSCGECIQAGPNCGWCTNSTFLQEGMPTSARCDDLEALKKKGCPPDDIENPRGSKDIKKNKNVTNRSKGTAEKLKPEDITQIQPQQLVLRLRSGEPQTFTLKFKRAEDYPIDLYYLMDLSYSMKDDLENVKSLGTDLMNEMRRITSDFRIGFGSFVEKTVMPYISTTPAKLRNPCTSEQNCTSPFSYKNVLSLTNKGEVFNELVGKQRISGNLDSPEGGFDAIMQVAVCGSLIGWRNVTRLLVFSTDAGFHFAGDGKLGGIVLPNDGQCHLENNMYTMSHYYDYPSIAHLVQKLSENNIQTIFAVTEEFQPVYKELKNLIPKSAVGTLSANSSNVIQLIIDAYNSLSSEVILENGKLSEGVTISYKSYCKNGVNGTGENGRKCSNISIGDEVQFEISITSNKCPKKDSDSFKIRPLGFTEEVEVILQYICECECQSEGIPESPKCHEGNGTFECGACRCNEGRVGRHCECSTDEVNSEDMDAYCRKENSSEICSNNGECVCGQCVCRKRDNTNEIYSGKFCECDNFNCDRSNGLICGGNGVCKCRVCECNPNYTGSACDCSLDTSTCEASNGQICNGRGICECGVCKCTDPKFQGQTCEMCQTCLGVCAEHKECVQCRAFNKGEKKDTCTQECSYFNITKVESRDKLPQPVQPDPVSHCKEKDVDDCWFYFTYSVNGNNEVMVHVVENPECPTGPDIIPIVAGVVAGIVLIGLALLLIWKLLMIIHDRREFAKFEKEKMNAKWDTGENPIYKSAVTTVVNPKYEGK

binding to α5β1 (α5β1): do not bind
B1: Bc-12: patient derived human scFv antibody against activated αvβ3 with RGD motif in CDR-H3; cDNA ATCC PTA-6303 (protein)
scFv: MAQVQLVQSGAEVKKPGASVKVSCKASGYTFSNYGITWVRQAPGQGLEWMGWINNGNTHYAQKFQGRVTMTTDTSTSTAYMELRSLRSDDTAVYYCARDPRGDDEPYWGQGTLVTVSSGGGGSGGGGSGGGGSEIVLTQSPLSLPVTLGQPASISCRSSQNLVYSDGNTYLSWFQQRPGQSPRRLIYKVSNRDSGVPDRFSGSGSGTDFTLKISRVEAEDIGVYYCMQGTHWPPRTFGQGTKVEIKRGLGGLVDYKDDDDK
viability of matrix deprived cells (apoptosis) [1]: resulted in apoptotic cell death
